Results reported in the RNAGym collection of RNA variant scans (doi:10.1073/pnas.2313332121).

B1: TPR t1 (parent)
chain: GACCAAUCUGCCCUCAGAGCUCGAGAACAUCUUCGGAUGCAGAGGAGGCAGGCUUCGGUGGCGCGAUAGCGCCAACGUCCUCAACCUCCAAUGCAUCCCACCACAUGAUGAUGCCUGAAGAGCCUUGGUUUUUUG

Variants of: B1
Experiment: polymerase ribozyme fitness, log enrichment relative to wild type (log ratio); higher = more active; in vitro selection for triplet polymerase activity
Procedure, shortened: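 Mutant libraries for each subunit of a heterodimeric triplet polymerase ribozyme were made by PCR and then transcribed. Each library underwent one round of in vitro selection in triplicate: annealing with a biotinylated primer, the partner subunit and triplets, frozen incubation at −7 °C, gel excision of extended constructs, streptavidin-bead capture and RT-PCR. Input and output libraries were Illumina-sequenced, and only genotypes with ≥10 input reads and ≥1 read per output were kept. Fitness is the logarithm, base 2, of genotype enrichment over wild-type enrichment, computed from inverse-variance-weighted replicate averages.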

Variant	polymerase ribozyme fitness (log ratio)
GACCAAUCUGCCCUCAGAGCUCGAGAACAUCUUCAGAUGCAGAGGAGGCAGGCUUCGGUGGCGCGAUAGUGCCAACGUCCUCAACCUCCAAUGCAUCCCACCACAUGAUGAUGCCUGAAGAGCCUUGGUUUUUUG [G35A C70U]	-2.72
GACCAAUCUGCCCUCAGAGCUCGAGAACGUCUUCGGAUGCUGAGGAGGCAGGCUUCGGUGGCGCGAUAGCGCCAACGUCCUCAACCUCCAAUGCAUCCCACCACAUGAUGAUGCCUGAAGAGCCUUGGUUUUUUG [A29G A41U]	-1.6
GACCAACCUGCCCUCAGAUCUCGAGAACAUCUUCGGAUGCAGAGGAGGCAGGCCUCGGUGGCGCGCUAGCGCCAACGUCCUCAACCUCCAAUGCAUCCCACCACAUGAUGAUGCCUGAAGAGCCUUGGUUUUUUG [U7C G19U U54C A66C]	-5.92
GACCAAUCUGCCUUCAGAGCUCGAGAACAUCUUCGGAUGCAGAGGAGGCAGGCUUCGGUGGUCCGAUAGCGCCAACGUCCUCAACCUCCAAUGCAUCCCACCACAUGAUGAAGCCUGAAGAGCCUUGGUUUUUUG [C13U C62U G63C U112A]	-0.823
GACCAAUCUGCCCUCAGAGCUCGAGAACAUCUUCGGAUGCAGAGGAGGCAGGCUUCGGUCGCGCGAUAGCGCCAACGUCCUCAACCUCCAAUGCAUCCCACCACAUGAUGAGGCCCGAAGAGCCUUGGUUUUUUG [G60C U112G U116C]	-2.47
GACCAAUCUGCCCUCAGAGCUCGAGAACAUCUUCAGAUGCAGAGGAGGCAGGCUUCGGUGGCGCGAUAGCGGCAACGUCCUCAACCUCCAAUGCAUCCCACCACAUGAUGAUGCCUGAAGAGCCUUGGUUUUUUG [G35A C72G]	-2.69
GACCAAUCUGCCCUCAGAGCUCGAGAACAUCUUCGGAUGCAUCGGAGGCAGGCUUCGGUAGCGCGAUAGCGCCAACGUCCUCAACCUCAAAUGCAUCCCACCACAUGAUGAUGCCUGAAGAGCCUUGGUUUUUUG [G42U A43C G60A C89A]	-2.03
GACCAAUCUGCCCUCAGAGCUCGAGAACAUCUUCGGAUGCAGAGGAUGCAGGCUUCGGUGGCGCGAUAGCGCCAACGUCCUCAACCUCCUAUGCAUCCCACCACAUGAUGAUGCCUCAAGAGCCUUGGUUUUUUG [G47U A90U G117C]	-4.37
GACCCAUCUGCCCUCAGAGCUCGAGAGCAUCUUCGGAUGCAGAGGAGGCAGGCUUCGGUGGCCCGAUAGCGCCAACGUCCUCAACCUCCAAUGCAUCCCACCACAUGAUGAUGCCUGAAGGGCCUUGGUUUUUUG [A5C A27G G63C A121G]	0.00315
GACCAAUCUACCCUCAGAGCUCGAGAACAUCUUCGUAUGCAGAUGAGGCAGGCUUCGGUGUCGCGAUAGCGCCAACGUCCUCAACCUUCAAUGCGACCCACCACAUGAUGAUGCCUGAAAAGCCUUGGUUUUUUG [G10A G36U G44U G61U C88U A95G U96A G120A]	-7.26
GACCAAUCUGCCCUCAGACCUCGAGAACAUCUUCGGAUGCAGAGGAGGCAGGCUUCGGUGGCGCGAUACCGCCAACGUCCUCAACGUCCAAUGCAUCCCACCACAUGAUGAUGCCUGAAGGGCCUUGGUUUUUUG [G19C G69C C86G A121G]	-3.28
GACCAAUCUGCCCUCAGAGCUCGAGAACAUCUUCGGAUACAGAGGAGGCAGGCUUCGGUGGCGCGAUAGCGCCAACGUCCUCAACCUCCAAUGCAUCCCACCACAUGAUUAUGCCUGAAGAGCCUUGGUUUUUUG [G39A G110U]	-2.32
GACCAAUCUACCCUCAGAGCUCGAGAACAUCUUCGGAUGCAGAGCAGGCAGGCUUGGGUGGCACGAUAGCGCCAACGUCCUCAACCUCCAAUGCAUCCCACCACAUGAUGAUGCCUGAAGAGCCUUGGUUUUUUG [G10A G45C C56G G63A]	-4.08
GACCAAUGUGCCCUCAGAGCUCGAGAACAUAUUCGGAUGCUGAGGAGGCAGGCUUCGGUGGCGCGAUAGCGCGAACGUCCUCAACCUCCAAUGCAUCCCACCACAUGAUGAAGCCUGAAGAGCCUUGGUUUUUUG [C8G C31A A41U C73G U112A]	-6.12
GACCAAUCUGCCCUCAGAGCUCGAGAACAUCUUCGGAUGCAGAGGAGGCAGGCUUCGGUGGCGCGAUAGCGCCAACGUCCUCAACCUCCAAUGCAUCCCACCACAUGAUGAUGCCUGAAGAGCGUAGGUUUUUUG [C124G U126A]	1.15
GACCAAUCUGCCCUCAGAGCUCGAGAACAUCUUCGGAUGCAGAGGAGGCAGGCUUCGGUGGCGCCAUAGCGCCAACGUCCUCAACCUCCAAUGCAUCCCACCACAUGAUGAUGGCUGAAGAGCCUUGGUUUUUUG [G65C C114G]	-6.28
GACCAAUUGGCCCUCAGAGCUCGAGAACAUCUUCGGAUGCAGAGGAGGCAGGCUUCGGCGGCGCGAUAGCGUCAACGUCCUCAACCUCCAAUGCAUCCCACCACAUGAUGAUGCCUGAAGAGCCUUGGUUUUUUG [C8U U9G U59C C72U]	0.524
GACCAAUCUGCCCUCAGAGCUCGUGAACAUCUUCGGAUGCAGAGGAGGCAGGCUUCGGUGUCGCGAUAGCGCCAACGUCCUCAACCUCCAGUGCAUCCCACCACAUGAUGAUGCCUGAAUAGCUUUGGUUUUUUA [A24U G61U A91G G120U C124U G135A]	-6.15
GACCAAUCUGCCCUCAGAGCUCGAGAACAUCUUCGGAUGGAGAGGAGGCAGGCUUCGGUGGCGCGAUAGCGCCAACGUCUUCAACCUCCAAUGCAUCCCACCACAUGAUGAUGCCUGAAGAUCCUUGGUUUUUUG [C40G C80U G122U]	-3.37
GACCAAUCUGCCCUCAGAGCUCGAGAACAUCUUCGGAUGCAGAGGAGGGAGGCUUCGGUGGCGCGAUAGCGCCAACGUCCUGAACCUCCAAUGCAUCCCACCACAUGAUGAUGCCUGAAGAGCCUUGGUUUUUUG [C49G C82G]	-1.03
GACCAAUCUGCCCUCAGAGCUCGAGAACAUCUUCGGAUGCAGAGGAGGCAGGCUUCGGUGGCGCGAUAGCACCAACGUCCUCAACCUCCAAUGCAUCCCACCACAUGAUAAUGCUUGAAGAGCCUUGGUUUUUUG [G71A G110A C115U]	-5.43
